Results: US11214624

Biological target: microtubule (in vitro reconstituted, taxol-stabilised)

B1: HA-tagged wild-type p68 (HA-p68), immunopurified from SW480 cell lysates (protein)
chain: MSGYSSDRDRGRDRGFGAPRFGGSRAGPLSGKKFGNPGEKLVKKKWNLDELPKFEKNFYQEHPDLARRTAQEVETYRRSKEITVRGHNCPKPVLNFYEANFPANVMDVIARQNFTEPTAIQAQGWPVALSGLDMVGVAQTGSGKTLSYLLPAIVHINHQPFLERGDGPICLVLAPTRELAQQVQQVAAEYCRACRLKSTCIYGGAPKGPQIRDLERGVEICIATPGRLIDFLECGKTNLRRTTYLVLDEADRMLDMGFEPQIRKIVDQIRPDRQTLMWSATWPKEVRQLAEDFLKDYIHINIGALELSANHNILQIVDVCHDVEKDEKLIRLMEEIMSEKENKTIVFVETKRRCDELTRKMRRDGWPAMGIHGDKSQQERDWVLNEFKHGKAPILIATDVASRGLDVEDVKFVINYDYPNSSEDYIHRIGRTARSTKTGTAYTFFTPNNIKQVSDLISVLREANQAINPKLLQLVEDRGSGRSRGRGGMKDDRRDRYSAGKRGGFNTFRDRENYDRGYSSLLKRDFGAKTQNGVYSAANYTNGSFGSNFVSAGIQTSFRTGNPTGTYQNGYDSTQQYGSNVPNMHNGMNQQAYAYPATAAAPMIGYPMPTGYSQ
  % of gliding microtubules (n = 50), p68/Ca^2+-CaM, ATP: 74.2%
  % of gliding microtubules (n = 50), p68/Ca^2+-CaM, no ATP: 5.79%
  ATPase activity (inorganic phosphate hydrolyzed from ATP): the protein demonstrated an even stronger microtubule stimulated ATPase activity
  Maximum gliding speed, p68/Ca^2+-CaM, ATP: 0.52 µm/min
  Maximum gliding speed, p68/Ca^2+-CaM, no ATP: 0.01 µm/min
  Mean gliding speed, p68/Ca^2+-CaM, ATP: 0.16 µm/min
  Mean gliding speed, p68/Ca^2+-CaM, no ATP: 0 µm/min
